Article PMC2267006, “Methylated DNA Recognition during the Reversal of Epigenetic Silencing Is Regulated by Cysteine and Serine Residues in the Epstein-Barr Virus Lytic Switch Protein”

Experiments:
Zta [1] = target: T1, Zta (Epstein-Barr virus, UniProt P03206 1-245); experiment: competition; vs labelled ZIIIB; rank 1 of single-methyl sites; EMSA conditions not stated (cited to earlier papers); IVT proteins in rabbit reticulocyte lysate or wheat germ; competition with 6x-100x unlabelled DNA; settings: protein: ivt; tags: [35S]Met-labelled in EMSA; chain copies: 2
T1 sequence (P03206 whole entry): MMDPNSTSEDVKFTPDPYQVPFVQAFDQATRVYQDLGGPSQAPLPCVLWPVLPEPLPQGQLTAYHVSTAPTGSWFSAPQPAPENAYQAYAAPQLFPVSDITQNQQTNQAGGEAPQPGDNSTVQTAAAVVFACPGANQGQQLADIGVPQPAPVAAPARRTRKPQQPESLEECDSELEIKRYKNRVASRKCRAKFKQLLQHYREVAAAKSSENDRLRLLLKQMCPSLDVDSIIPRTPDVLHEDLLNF

Zta [2] = target: T1, Zta; experiment: competition; vs labelled ZIIIB; rank 2 of single-methyl sites; EMSA conditions not stated (cited to earlier papers); IVT proteins in rabbit reticulocyte lysate or wheat germ; competition with 6x-100x unlabelled DNA; settings: protein: ivt; tags: [35S]Met-labelled in EMSA; chain copies: 2

Binder	binding result (Zta [1])	binding result (Zta [2])
ZRE3 mC1' (dsDNA, single 5mC at the complement of G14 (position assigned from text)) DNA 1: GATCTATAGCATCGCGAATTTTGA DNA 2: TCAAAATTCGCGATGCTATAGATC	binds	
ZRE3 mC-2 (dsDNA, single 5mC at C13 of strand 1 (position assigned from text)) DNA 1: GATCTATAGCATCGCGAATTTTGA DNA 2: TCAAAATTCGCGATGCTATAGATC		binds
